Patent publication US8785135B2, “Mutant G-protein coupled receptors and methods for selecting them” (Heptares Therapeutics Limited, priority 2007, dated 2014)
Positions count from the first letter of the chain named. In names and notes the source's numbering stands.

B1: R395A: NTR point mutant (protein, UniProt P20789 1-424, looked up, variant R395A)
Neurotensin receptor type 1: MHLNSSVPQGTPGEPDAQPFSGPQSEMEATFLALSLSNGSGNTSESDTAGPNSDLDVNTDIYSKVLVTAIYLALFVVGTVGNSVTAFTLARKKSLQSLQSTVHYHLGSLALSDLLILLLAMPVELYNFIWVHHPWAFGDAGCRGYYFLRDACTYATALNVASLSVERYLAICHPFKAKTLMSRSRTKKFISAIWLASALLAIPMLFTMGLQNRSGDGTHPGGLVCTPIVDTATVKVVIQVNTFMSFLFPMLVISILNTVIANKLTVMVHQAAEQGRVCTVGTHNGLEHSTFNMTIEPGRVQALRHGVLVLRAVVIAFVVCWLPYHVRRLMFCYISDEQWTTFLFDFYHYFYMLTNALFYVSSAINPILYNLVSANFRQVFLSTLACLCPGWRHRAKKRPTFSRKPNSMSSNHAFSTSATRETLY
B2: T294A: NTR point mutant (protein, UniProt P20789 1-424, looked up, variant T294A)
Neurotensin receptor type 1: B1 Neurotensin receptor type 1 with T294A, A395R
B3: A73L: NTR point mutant (protein, UniProt P20789 1-424, looked up, variant A73L)
Neurotensin receptor type 1: B1 Neurotensin receptor type 1 with A73L, A395R
B4: M250A: NTR point mutant (protein, UniProt P20789 1-424, looked up, variant M250A)
Neurotensin receptor type 1: B1 Neurotensin receptor type 1 with M250A, A395R
B5: 1253A: NTR point mutant, Ile 253 to Ala (protein, UniProt P20789 1-424, looked up, variant I253A)
Neurotensin receptor type 1: B1 Neurotensin receptor type 1 with I253A, A395R
B6: H103A: NTR point mutant (protein, UniProt P20789 1-424, looked up, variant H103A)
Neurotensin receptor type 1: B1 Neurotensin receptor type 1 with H103A, A395R
B7: A69L: NTR point mutant (protein, UniProt P20789 1-424, looked up, variant A69L)
Neurotensin receptor type 1: B1 Neurotensin receptor type 1 with A69L, A395R
B8: V165A: NTR point mutant (protein, UniProt P20789 1-424, looked up, variant V165A)
Neurotensin receptor type 1: B1 Neurotensin receptor type 1 with V165A, A395R
B9: V309A: NTR point mutant (protein, UniProt P20789 1-424, looked up, variant V309A)
Neurotensin receptor type 1: B1 Neurotensin receptor type 1 with V309A, A395R
B10: L308A: NTR point mutant (protein, UniProt P20789 1-424, looked up, variant L308A)
Neurotensin receptor type 1: B1 Neurotensin receptor type 1 with L308A, A395R
B11: S373A: NTR point mutant (protein, UniProt P20789 1-424, looked up, variant S373A)
Neurotensin receptor type 1: B1 Neurotensin receptor type 1 with S373A, A395R
B12: L310A: NTR point mutant (protein, UniProt P20789 1-424, looked up, variant L310A)
Neurotensin receptor type 1: B1 Neurotensin receptor type 1 with L310A, A395R
B13: A177L: NTR point mutant (protein, UniProt P20789 1-424, looked up, variant A177L)
Neurotensin receptor type 1: B1 Neurotensin receptor type 1 with A177L, A395R
B14: E166A: NTR point mutant (protein, UniProt P20789 1-424, looked up, variant E166A)
Neurotensin receptor type 1: B1 Neurotensin receptor type 1 with E166A, A395R
B15: V360A: NTR point mutant (protein, UniProt P20789 1-424, looked up, variant V360A)
Neurotensin receptor type 1: B1 Neurotensin receptor type 1 with V360A, A395R
B16: G390A: NTR point mutant (protein, UniProt P20789 1-424, looked up, variant G390A)
Neurotensin receptor type 1: B1 Neurotensin receptor type 1 with G390A, A395R
B17: A385L: NTR point mutant (protein, UniProt P20789 1-424, looked up, variant A385L)
Neurotensin receptor type 1: B1 Neurotensin receptor type 1 with A385L, A395R
B18: F380A: NTR point mutant (protein, UniProt P20789 1-424, looked up, variant F380A)
Neurotensin receptor type 1: B1 Neurotensin receptor type 1 with F380A, A395R
B19: I260A: NTR point mutant (protein, UniProt P20789 1-424, looked up, variant I260A)
Neurotensin receptor type 1: B1 Neurotensin receptor type 1 with I260A, A395R
B20: A90L: NTR point mutant (protein, UniProt P20789 1-424, looked up, variant A90L)
Neurotensin receptor type 1: B1 Neurotensin receptor type 1 with A90L, A395R
B21: G215A: NTR point mutant (protein, UniProt P20789 1-424, looked up, variant G215A)
Neurotensin receptor type 1: B1 Neurotensin receptor type 1 with G215A, A395R
B22: A86L: NTR point mutant (protein, UniProt P20789 1-424, looked up, variant A86L)
Neurotensin receptor type 1: B1 Neurotensin receptor type 1 with A86L, A395R
B23: R183A: NTR point mutant (protein, UniProt P20789 1-424, looked up, variant R183A)
Neurotensin receptor type 1: B1 Neurotensin receptor type 1 with R183A, A395R
B24: V229A: NTR point mutant (protein, UniProt P20789 1-424, looked up, variant V229A)
Neurotensin receptor type 1: B1 Neurotensin receptor type 1 with V229A, A395R
B25: G306A: NTR point mutant (protein, UniProt P20789 1-424, looked up, variant G306A)
Neurotensin receptor type 1: B1 Neurotensin receptor type 1 with G306A, A395R
B26: N370A: NTR point mutant (protein, UniProt P20789 1-424, looked up, variant N370A)
Neurotensin receptor type 1: B1 Neurotensin receptor type 1 with N370A, A395R
B27: F342A: NTR point mutant (protein, UniProt P20789 1-424, looked up, variant F342A)
Neurotensin receptor type 1: B1 Neurotensin receptor type 1 with F342A, A395R
B28: V313A: NTR point mutant (protein, UniProt P20789 1-424, looked up, variant V313A)
Neurotensin receptor type 1: B1 Neurotensin receptor type 1 with V313A, A395R
B29: P389A: NTR point mutant (protein, UniProt P20789 1-424, looked up, variant P389A)
Neurotensin receptor type 1: B1 Neurotensin receptor type 1 with P389A, A395R
B30: K176A: NTR point mutant (protein, UniProt P20789 1-424, looked up, variant K176A)
Neurotensin receptor type 1: B1 Neurotensin receptor type 1 with K176A, A395R
B31: L111A: NTR point mutant (protein, UniProt P20789 1-424, looked up, variant L111A)
Neurotensin receptor type 1: B1 Neurotensin receptor type 1 with L111A, A395R
B32: Y349A: NTR point mutant (protein, UniProt P20789 1-424, looked up, variant Y349A)
Neurotensin receptor type 1: B1 Neurotensin receptor type 1 with Y349A, A395R
B33: A356L: NTR point mutant (protein, UniProt P20789 1-424, looked up, variant A356L)
Neurotensin receptor type 1: B1 Neurotensin receptor type 1 with A356L, A395R
B34: D345A: NTR point mutant (protein, UniProt P20789 1-424, looked up, variant D345A)
Neurotensin receptor type 1: B1 Neurotensin receptor type 1 with D345A, A395R

Assay: Thermostability of NTR and mutants (3H-neurotensin binding)
Format: physicochemical
Conditions: Ligand(+) format
With B1 the “thermostability, heated in the presence of 3H-neurotensin” value (from here on “thermostability, heated in the presence”) was “improved thermostability”. With B2 the “thermostability, heated in the presence” value was “improved thermostability”. In the case of B3, the “thermostability, heated in the presence” value is reported as “improved thermostability”. In the case of B4, the “thermostability, heated in the presence” value is reported as “improved thermostability”. In the case of B5, the “thermostability, heated in the presence” value is reported as “improved thermostability”. For B6, the “thermostability, heated in the presence” value was “improved thermostability”. For B7, the “thermostability, heated in the presence” value was “improved thermostability”. In the case of B8, the “thermostability, heated in the presence” value is reported as “improved thermostability”. For B9, the “thermostability, heated in the presence” value was “improved thermostability”. With B10 the “thermostability, heated in the presence” value was “improved thermostability”. In the case of B11, the “thermostability, heated in the presence” value is reported as “improved thermostability”. For B12, the “thermostability, heated in the presence” value was “improved thermostability”. In the case of B13, the “thermostability, heated in the presence” value is reported as “improved thermostability”. With B14 the “thermostability, heated in the presence” value was “improved thermostability”. With B15 the “thermostability, heated in the presence” value was “improved thermostability”. For B16, the “thermostability, heated in the presence” value was “improved thermostability”. With B17 the “thermostability, heated in the presence” value was “improved thermostability”. With B18 the “thermostability, heated in the presence” value was “improved thermostability”. In the case of B19, the “thermostability, heated in the presence” value is reported as “improved thermostability”. With B20 the “thermostability, heated in the presence” value was “improved thermostability”. In the case of B21, the “thermostability, heated in the presence” value is reported as “improved thermostability”. With B22 the “thermostability, heated in the presence” value was “improved thermostability”. For B23, the “thermostability, heated in the presence” value was “improved thermostability”. In the case of B24, the “thermostability, heated in the presence” value is reported as “improved thermostability”. For B25, the “thermostability, heated in the presence” value was “improved thermostability”. With B26 the “thermostability, heated in the presence” value was “improved thermostability”. With B27 the “thermostability, heated in the presence” value was “improved thermostability”. With B28 the “thermostability, heated in the presence” value was “improved thermostability”. With B29 the “thermostability, heated in the presence” value was “improved thermostability”.

Same assay, conditions: heated in the absence of the agonist
For B30, the “thermostability, 3H-neurotensin (agonist) binding after the heating step” value (from here on “thermostability, 3H-neurotensin”) was “small but significant increase in thermostability”. For B31, the “thermostability, 3H-neurotensin” value was “small but significant increase in thermostability”. In the case of B6, the “thermostability, 3H-neurotensin” value is reported as “small but significant increase in thermostability”. With B32 the “thermostability, 3H-neurotensin” value was “small but significant increase in thermostability”. For B17, the “thermostability, 3H-neurotensin” value was “small but significant increase in thermostability”. With B20 the “thermostability, 3H-neurotensin” value was “small but significant increase in thermostability”. For B33, the “thermostability, 3H-neurotensin” value was “small but significant increase in thermostability”. With B22 the “thermostability, 3H-neurotensin” value was “small but significant increase in thermostability”. With B34 the “thermostability, 3H-neurotensin” value was “small but significant increase in thermostability”.
